For this test, the target named is hCD40ADD (human CD40 with its TRAF binding site PVQETLH changed to PVQATDD) (human) (UniProt P25942). As to the kind of experiment: co-IP.

B1: TNF receptor-associated factor 2 (natural protein)
chain: MAAASVTSPGSLELLQPGFSKTLLGTRLEAKYLCSACKNILRRPFQAQCGHRYCSFCLTSILSSGPQNCAACVYEGLYEEGISILESSSAFPDNAARREVESLPAVCPNDGCTWKGTLKEYESCHEGLCPFLLTECPACKGLVRLSEKEHHTEQECPKRSLSCQHCRAPCSHVDLEVHYEVCPKFPLTCDGCGKKKIPRETFQDHVRACSKCRVLCRFHTVGCSEMVETENLQDHELQRLREHLALLLSSFLEAQASPGTLNQVGPELLQRCQILEQKIATFENIVCVLNREVERVAVTAEACSRQHRLDQDKIEALSNKVQQLERSIGLKDLAMADLEQKVSELEVSTYDGVFIWKISDFTRKRQEAVAGRTPAIFSPAFYTSRYGYKMCLRVYLNGDGTGRGTHLSLFFVVMKGPNDALLQWPFNQKVTLMLLDHNNREHVIDAFRPDVTSSSFQRPVSDMNIASGCPLFCPVSKMEAKNSYVRDDAIFIKAIVDLTGL
For the molecule B1, the fold reduction of co-immunoprecipitated TRAF2 against hCD40 worked out at 2 fold.

Source of the values: publication PMC2747101.
